Assay results published in the RNAGym collection of RNA variant scans (doi:10.7554/elife.80360).

B1: Hairpin Ribozyme (parent)
chain: GUCCUCUUUCACGUGCGCGUGAAAGAGAGAAGUGAACCAGAGAAACACACGUUGUGGUAUAUUACCUGGUA

Variants of: B1
Assay: self-cleavage, relative activity (ratio to wild type); higher = more cleavage; co-transcriptional

Going from GUCCUCUUUCACGUGCGCGUGAAAGAGAGAAGCGAACCAGAGAAACACACGUUGUGGUAUAUUACCUGUUA to GUCCUCUUUCACGUGCGCGUGAAAGAGAGAAGGGAACCAGAGAAACACACGUUGUGGUAUAUUACCUGAUA, the self-cleavage falls from 0.0808 to 0.0603.

Going from GUCCUCUUUCACGUGCGCGUGAAAGAGAGAAGGGAACCAGAGAAACACACGUUGUGGUAUAUUACCUGUUA to GUCCUCUUUCACGUGCGCGUGAAAGAGAGAAGGGAACCAGAGAAACACACGUUGUGGUCUAUUACCUGGUA, the self-cleavage rises from 0.123 to 0.139.

First: GUCCUCUUUCACGUGCGCGUGAAAGAGAGAAGCGAACUAGAGAAACACACGUUGUGGUAUAUUACCUGGUA
Second: GUCCUCUUUCACGUGCGCGUGAAAGAGAGAAGCGAACCAGAGAAACACACGUUGUGUUAUAUUACCUGGUA
The self-cleavage of the first is lower: 0.0575 for the first, 0.19 for the second.

First: GUCCUCUUUCACGUGCGCGUGAAAGAGAGAAGGGAACCAGAGGAACACACGUUGUGGUAUAUUACCUGGUA
Second: GUCCUCUUUCACGUGCGCGUGAAAGAGAGAAGGGAACCAGAGAAACACACGUUGUGGUAUAUUACCCGGUA
The self-cleavage of the first is higher: 0.282 for the first, 0.111 for the second.

Going from GUCCUCUUUCACGUGCGCGUGAAAGAGAGAAGGGAACCAGAGAAACACACGUUGUGGUAUAUUACCAGGUA to GUCCUCUUUCACGUGCGCGUGAAAGAGAGAAGGGAACCAGAGAAACACACGUUGUGGUAUAUUACCUGGUA, the self-cleavage falls from 0.146 to 0.127.

Going from GUCCUCUUUCACGUGCGCGUGAAAGAGAGAAGGGAACCAGAGAAACACAGGUUGUGGUAUAUUACCUGGUA to GUCCUCUUUCACGUGCGCGUGAAAGAGAGAAGCGAACCAGAGAAACACACGUUGUAGUAUAUUACCUGGUA, the self-cleavage falls from 0.12 to 0.0589.

First: GUCCUCUUUCACGUGCGCGUGAAAGAGAGAAGCGAACCAGAGAAACACACGUUGUCGUAUAUUACCUGGUA
Second: GUCCUCUUUCACGUGCGCGUGAAAGAGAGAAGGGAACCAGAGAAACACACGUUGUGGUAUAUGACCUGGUA
The self-cleavage of the first is lower: 0.167 for the first, 0.198 for the second.

Compared with GUCCUCUUUCACGUGCGCGUGAAAGAGAGAAGGGAACCAGACAAACACACGUUGUGGUAUAUUACCUGGUA, GUCCUCUUUCACGUGCGCGUGAAAGAGAGAAGGGAACCAUAGAAACACACGUUGUGGUAUAUUACCUGGUA is lower in self-cleavage: 0.166 for the first, 0.0849 for the second.

Compared with GUCCUCUUUCACGUGCGCGUGAAAGAGAGAAGGGAACCAAAGAAACACACGUUGUGGUAUAUUACCUGGUA, GUCCUCUUUCACGUGCGCGUGAAAGAGAGAAGGGAACCACAGAAACACACGUUGUGGUAUAUUACCUGGUA is lower in self-cleavage: 0.245 for the first, 0.0649 for the second.

Going from GUCCUCUUUCACGUGCGCGUGAAAGAGAGAAGCGAACCAGAGAAACACACGUUGUGGUAUAUUAUCUGGUA to GUCCUCUUUCACGUGCGCGUGAAAGAGAGAAGGGAACCAGAGAAACACACGCUGUGGUAUAUUACCUGGUA, the self-cleavage falls from 0.2 to 0.145.

First: GUCCUCUUUCACGUGCGCGUGAAAGAGAGAAGGGAACCAGAGAAACACACGAUGUGGUAUAUUACCUGGUA
Second: GUCCUCUUUCACGUGCGCGUGAAAGAGAGAAGCGAACCAGAGAAACACACGUUGUGGCAUAUUACCUGGUA
The self-cleavage of the first is higher: 0.17 for the first, 0.169 for the second.

Compared with GUCCUCUUUCACGUGCGCGUGAAAGAGAGAAGUAUACCAGAGAAACACACGUUGUGGUAUAUUACCUGGUA, GUCCUCUUUCACGUGCGCGUGAAAGAGAGAAGGGAACCAGAGAAACACACGUUGUGGUAUAUUAGCUGGUA is lower in self-cleavage: 0.569 for the first, 0.122 for the second.

Going from GUCCUCUUUCACGUGCGCGUGAAAGAGAGAAGGGAACCCGAGAAACACACGUUGUGGUAUAUUACCUGGUA to GUCCUCUUUCACGUGCGCGUGAAAGAGAGAAGUAAACCAGAGGAACACACGUUGUGGUAUAUUACCUGGUA, the self-cleavage falls from 0.149 to 0.0724.

First: GUCCUCUUUCACGUGCGCGUGAAAGAGAGAAGGGAACCAGAGAAACACACGUGGUGGUAUAUUACCUGGUA
Second: GUCCUCUUUCACGUGCGCGUGAAAGAGAGAAGGGAACCAGAGAAACACACGUCGUGGUAUAUUACCUGGUA
The self-cleavage of the first is higher: 0.211 for the first, 0.204 for the second.

First: GUCCUCUUUCACGUGCGCGUGAAAGAGAGAAGGGAACCAGAGAAACACACGUUGUGGUAUAUUUCCUGGUA
Second: GUCCUCUUUCACGUGCGCGUGAAAGAGAGAAGCGAACCAGAGAAACACAAGUUGUGGUAUAUUACCUGGUA
The self-cleavage of the first is higher: 0.144 for the first, 0.114 for the second.

Compared with GUCCUCUUUCACGUGCGCGUGAAAGAGAGAAGGGAACCAGAGAAACACACGUUGUGAUAUAUUACCUGGUA, GUCCUCUUUCACGUGCGCGUGAAAGAGAGAAGGGAACCAGAGAAACACACGUUGUGCUAUAUUACCUGGUA is lower in self-cleavage: 0.115 for the first, 0.108 for the second.

First: GUCCUCUUUCACGUGCGCGUGAAAGAGAGAAGCGAACCAGAGAAACACACGUUGUGGUAUAUUACCUCGUA
Second: GUCCUCUUUCACGUGCGCGUGAAAGAGAGAAGGGAACCAGAGAAACACACGUUGUGGUAUAUUACCUGGUC
The self-cleavage of the first is lower: 0.0535 for the first, 0.307 for the second.

Going from GUCCUCUUUCACGUGCGCGUGAAAGAGAGAAGGGAACCAGAGAAACACACGUUGUGGUAUAUUACCUGGUU to GUCCUCUUUCACGUGCGCGUGAAAGAGAGAAGGGAACCAGAGAAACACACGUUGUGGUAUAUUACCUAGUA, the self-cleavage rises from 0.067 to 0.151.

Compared with GUCCUCUUUCACGUGCGCGUGAAAGAGAGAAGGGAACCAGAGAAACACACGUUGUGGUAUAUUACCUUGUA, GUCCUCUUUCACGUGCGCGUGAAAGAGAGAAGUAAUCCAGAGAAACACACGUUGUGGUAUAUUACCUGGUA is higher in self-cleavage: 0.0922 for the first, 0.832 for the second.
